experiment: yeast display, Sf9 membrane polyspecificity reagent, FACS + sequencing; frameworks hold sequencing errors
How it was run: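 Galactose induction of a Saccharomyces cerevisiae BJ5465 synthetic nanobody display library ran 36–48 hours. The cells were then stained for 1 hour at 4 °C with 10% biotinylated, detergent-solubilized Sf9 membrane reagent, pulled down on streptavidin microbeads and FACS-sorted into low and high (top ~1%) gates on expression and reagent-binding fluorescence. Labels for polyreactivity follow the gate of origin.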

Question: For “QVQLVESGGGLVQAGGSLRLSCAASGFIFAWYAMGWYRQAPGKERELVASISVSDGSTYYADSVKGRFTISRDNAKNTVYLQMNSLKPEDTAVYYCAADRFYDQAYDYWGQGTQVTVSS”, which “polyreactivity (PSR sort gate)” value is on record?
Answer: Its value is “low polyreactivity”.

Question: Which “polyreactivity (PSR sort gate)” value does the source give for “QVQLVESGGGLVQAGGSLRLSCAASGFIFAYYAMGWYRQAPGKERELVAAISSRGGTYYADSVKGRFTISRDNAKNTVYLQMNSLKPEDTAVYYCAAASYTWVSRGYEYWGQGTQVTVSS” here?
Answer: The value was “high polyreactivity”.

Question: For “QVQLVESGGGLVQAGGSLRLSCAASGFIFAYYAMGWYRQAPGKERELVAAISYNGGTTYYADSVKGRFTISRDNAKNTVYLQMNSLKPEDSAVYYCNALVHQTYYDYDYWGQGTQVTVSS”, which “polyreactivity (PSR sort gate)” value is on record?
Answer: The value was “high polyreactivity”.

Question: Which “polyreactivity (PSR sort gate)” value does the source give for “QVQLVESGGGLVQAGGSLRLSCAASGFIFAYYTMGWYRQAPGKERELVAAISWSGGTTYYADSVKGRFTISRDNAKNTVYLQMNSLKPEDTAVYYCNAYPKWLGYYEDDYWGQGTQVTVSS” here?
Answer: Its value is “low polyreactivity”.

Question: With “QVQLVESGGGLVQAGGSLRLSCAASGFIFDAYAMGWYRQAPGKERELVAAITRGNTYYADSVKGRFTISRDNAKNTVYLQMNSLKPEDTAVYYCAARYWQSYRSQVTHSSTLDYWGQGTQVTVSS” as the sequence, how does the “polyreactivity (PSR sort gate)” value read?
Answer: Its value is “low polyreactivity”.

Question: For “QVQLVESGGGLVQAGGSLRLSCAASGFIFDDYAMGWYRQAPGKERELVAAISVSSTNYADSVKGRFTISRDNAKNTVYLQMNSLKPEDTAVYYCAADTYTYFLASYLYGQYDYWGQGTQVTVSS”, which “polyreactivity (PSR sort gate)” value is on record?
Answer: Its value is “low polyreactivity”.

Question: Which “polyreactivity (PSR sort gate)” value does the source give for “QVQLVESGGGLVQAGGSLRLSCAASGFIFDGNAMGWYRQAPGKERELVAAISSDGGTYYADSVKGRFTISRDNAKNTVYLQMNSLKPEDTAVYYCAAEQTLLYSFGWDEYWGQGTQVTVSS” here?
Answer: Its value is “low polyreactivity”.

Question: Which “polyreactivity (PSR sort gate)” value does the source give for “QVQLVESGGGLVQAGGSLRLSCAASGFIFDGYTMGWYRQAPGKERELVAAISRSGGRTYYADSVKGRFTISRDNAKNTVYLQMNSLKPEDTAVYYCAVRYRQYSQTVASDYGYWGQGTQVTVSS” here?
Answer: The value was “high polyreactivity”.

Question: With “QVQLVESGGGLVQAGGSLRLSCAASGFIFDHNARGWYRQAPGKERELVAAITWRGDSTYYADSVKGRFTISRDNAKNTVYLQMNSLKPEDTAVYYCNADAILVYYGKLDYWGQGTQVTVSS” as the sequence, how does the “polyreactivity (PSR sort gate)” value read?
Answer: Its value is “low polyreactivity”.

Question: With “QVQLVESGGGLVQAGGSLRLSCAASGFIFDQYAMGWYRQAPGKERELVAAITSGGDTNYADSVKGRFTISRDNAKNTVYFQMNSLKPEDTAVYYCNVDVPGVRFEYWGQGTQVTVSS” as the sequence, how does the “polyreactivity (PSR sort gate)” value read?
Answer: The value was “low polyreactivity”.

Question: With “QVQLVESGGGLVQAGGSLRLSCAASGFIFDRYAMGWYRQAPGKERELVAAISSGGSTYYADSVKGRFTISRDNAKNTVYLQMNSLKPEDTAVYYCAAESWLKFIYEYDYWGQGTQVTVSS” as the sequence, how does the “polyreactivity (PSR sort gate)” value read?
Answer: The value was “low polyreactivity”.

Question: For “QVQLVESGGGLVQAGGSLRLSCAASGFIFDRYAMGWYRQAPGKERELVAAITGSGGSTYYADSVKGRFTISRDNAKNTVYLQMNSLKPEDTAVYYCAAESYVYFALFYVSIPYYYWGQGTQVTVSS”, which “polyreactivity (PSR sort gate)” value is on record?
Answer: Its value is “high polyreactivity”.

Question: For “QVQLVESGGGLVQAGGSLRLSCAASGFIFDSNAMGWYRQAPGKERELVAAISRSGASTYYADSVKGRFTISRDNAKNTVYLQMNSLKPEDTSVYYCAASVRKIHDRFYYWGQGTQVTVSS”, which “polyreactivity (PSR sort gate)” value is on record?
Answer: The value was “high polyreactivity”.

Question: Which “polyreactivity (PSR sort gate)” value does the source give for “QVQLVESGGGLVQAGGSLRLSCAASGFIFDSYAMGWYRPAPGKERELVATITKGGGRTYYADSVKGRFTISRDNAKNTVYLQMNSLKPEDTAVYYCNARGFSRRKGLDYWGQGTQVTVSS” here?
Answer: The value was “low polyreactivity”.

Question: Which “polyreactivity (PSR sort gate)” value does the source give for “QVQLVESGGGLVQAGGSLRLSCAASGFIFDSYAMGWYRQAPGKERELVAAISWSGGRTYYADSVKGRFTISRDNAKYTVYLQMNSLKPEDTAVYYCNVRTKLSSSYDYWGQGTQVTVSS” here?
Answer: Its value is “high polyreactivity”.

Question: For “QVQLVESGGGLVQAGGSLRLSCAASGFIFDSYAMGWYRQAPGKERELVATITKGGGRTYYADSVKGRFTISRDNAKNTVYLQMNSLKPEDTAVYYCNARGFSRRKGLDYWGQGTQVTVSS”, which “polyreactivity (PSR sort gate)” value is on record?
Answer: The value was “low polyreactivity”.

Question: Which “polyreactivity (PSR sort gate)” value does the source give for “QVQLVESGGGLVQAGGSLRLSCAASGFIFDTYAMGWYRQAPVKERELVAAISWTGTDTYYADSVKGRFTISRDNAKNTVYLQMNSLKPEDTAVYYCAARSRYKYSPSGDYWGQGTQVTVSS” here?
Answer: The value was “high polyreactivity”.

Question: With “QVQLVESGGGLVQAGGSLRLSCAASGFIFDVNALGWSRQATGKERELVATISKRGGTTYYADSVKGRFTISRDNAKNTVYLQMYSLKPDDTAVYYCAARHQTLRSYRYDYWGQGTQVTVSS” as the sequence, how does the “polyreactivity (PSR sort gate)” value read?
Answer: Its value is “low polyreactivity”.

Question: Which “polyreactivity (PSR sort gate)” value does the source give for “QVQLVESGGGLVQAGGSLRLSCAASGFIFDWYTMGWYRQAPGKERELVAAITIGGSTDYADSVKGRFTISRDNAKNTVYLQMNSLKPEDTAVYYCNALWYLSGTWYDYWGQGTQVTVSS” here?
Answer: The value was “low polyreactivity”.

Question: For “QVQLVESGGGLVQAGGSLRLSCAASGFIFDYNTMGWYRQAPGKERELVADISGGGGRTYYADSVKGRFTISRDNAKNTVYLQMNSLKPEDTAVYYCAALGFYHHAWWISYDYWGQGTQVTVSS”, which “polyreactivity (PSR sort gate)” value is on record?
Answer: The value was “low polyreactivity”.

Question: With “QVQLVESGGGLVQAGGSLRLSCAASGFIFDYYAMGWDRQAPGKESELVAAIRRSGGTTYYADSVKGRFTISRDNAKNTVYLLMNSLKPEDTAVYYCNVDSGEFDYVWVYTYDYWGQGTQVTVSS” as the sequence, how does the “polyreactivity (PSR sort gate)” value read?
Answer: Its value is “low polyreactivity”.

Question: For “QVQLVESGGGLVQAGGSLRLSCAASGFIFDYYAMGWYRQAPGKERELVAAISGRGGSTYYADSVKGRFTISRDNAKNTVYLQMNSLKPEDTAVYYCAKGVERYTYGSYWYDYWGQGTQVTVSS”, which “polyreactivity (PSR sort gate)” value is on record?
Answer: Its value is “high polyreactivity”.

Reference: the nanobody polyreactivity screen of Harvey et al. (2022)
